The assay has as its target T1, glutathione S-transferase (GST)-L5 (S. cerevisiae, UniProt P26321 1-297).
T1 sequence (looked up): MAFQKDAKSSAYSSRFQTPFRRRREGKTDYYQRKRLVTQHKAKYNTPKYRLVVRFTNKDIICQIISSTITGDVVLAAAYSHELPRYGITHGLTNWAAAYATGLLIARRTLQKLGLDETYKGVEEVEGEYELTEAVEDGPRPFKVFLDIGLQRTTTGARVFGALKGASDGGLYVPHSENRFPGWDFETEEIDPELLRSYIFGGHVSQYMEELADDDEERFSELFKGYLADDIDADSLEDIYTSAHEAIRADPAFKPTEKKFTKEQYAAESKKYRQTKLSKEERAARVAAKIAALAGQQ
Nature of the assay: pull-down.

B1: maltose-binding protein (MBP)-Rrs1p (natural protein, S. cerevisiae, UniProt Q08746 1-203, looked up)
chain: MSAEDYKNLPVTVEKPIPVVYDLGNLAAFDSNVLDKNDLDSSNARREEKIKSLTRDNVQLLINQLLSLPMKTTTESVGGTGGQSSVMTLLQLPDPTTDLPREKPLPKAKAMTKWEKFAAKKGIKPKERAGKMIYDEASGEWVPKWGYKGANKKLDDQWLVEVDDKVKGTDNELIDPRTLNRAERKRLVKKNEKQQRRNMKNAL
Turning to B1, the binding result is recorded as “binds”.
